According to patent US20210395777:

Target: AAV capsid expressed by the standard BEV1 infection and the v-cath deleted BEV2 infection in Sf9 cells

B1: V-CATH protease (Viral Cathepsin), encoded by the baculovirus v-cath gene of the BEV (protein)
chain: PLEFDWRRLNKVTSVKNQGMCGACWAFATLASLESQFAIKHNQLINLSEQQMIDCDFVDAGCNGGLLHTAFEAIIKMGGVQLESDYPYEADNNNCRMNSNKFLVQVKDCYRYITVYEEKLKDLLRLVGPIPMAIDAADIVNYKQGIIKYCFNSGLNHAVLLVGYGVENNIPYWTFKNTWGTDWGEDGFFRVQQNINACGMRNELASTAVIY
- degradation products of the AAV capsid on Western immunoblot (BEV1 against v-cath deleted BEV2): Deletion of v-cath eliminated the degradation products.
